Laboratory results taken from patent US20170298395A1, “AUTOTROPHIC HYDROGEN BACTERIA AND USES THEREOF” (Ohio State Innovation Foundation, priority 2011, published 2017).
Where two headings read alike, the source gives them in different places.

Tests used:
cbb promoter [1] = type: binding, R. eutropha
RubisCO = type: cell-based, Ralstonia eutropha; conditions: for Chemoheterotrophic RubisCO activity: Table 12, chemoheterotrophic (repressed) growth; for level of RubisCO relative to wild-type CbbR: CH growth conditions
cbb promoter [2] = type: cell-based, Ralstonia eutropha; conditions: for Chemoheterotrophic β-galactosidase activity: Table 12, chemoheterotrophic (repressed) growth
[3] = Table 9, chemoautotrophic growth conditions
[4] = Table 12, chemoautotrophic (induced) growth

Molecule	effect of ATP on CbbR binding to cbb promoter probe (phosphorimage, in words) (cbb promoter [1]; in the presence of ATP)	effect of RuBP on CbbR binding to cbb promoter probe (phosphorimage, in words) (cbb promoter [1]; in the presence of RuBP)	Chemoautotrophic RubisCO activity (RubisCO; [3])	Chemoautotrophic RubisCO activity (RubisCO; [4])	Chemoheterotrophic RubisCO activity (RubisCO)	Chemoautotrophic β-galactosidase activity (cbb promoter [2]; [3])	Chemoautotrophic β-galactosidase activity (cbb promoter [2]; [4])	Chemoheterotrophic β-galactosidase activity (cbb promoter [2])	level of RubisCO relative to wild-type CbbR (RubisCO)
G98R (protein) MSSFLRALTLRQLQIFVTVARHASFVRAAEELHLTQPAVSMQVKQLESVVGMALFERVKGQLTLTEPGDRLLHHASRILGEVKDAEEGLQAVKDVEQRSITIGLISTSKYFAPKLLAGFTALHPGVDLRIAEGNRETLLRLLQDNAIDLALMGRPPRELDAVSEPIAAHPHVLVASPRHPLHDAKGFDLQELRHETFLLREPGSGTRTVAEYMFRDHLFTPAKVITLGSNETIKQAVMAGMGISLLSLHTLGLELRTGEIGLLDVAGTPIERIWHVAHMSSKRLSPASESCRAYLLEHTAEFLGREYGGLMPGRRVA	no enhancement of binding	modest enhancement of binding							
T232A (protein) MSSFLRALTLRQLQIFVTVARHASFVRAAEELHLTQPAVSMQVKQLESVVGMALFERVKGQLTLTEPGDRLLHHASRILGEVKDAEEGLQAVKDVEQGSITIGLISTSKYFAPKLLAGFTALHPGVDLRIAEGNRETLLRLLQDNAIDLALMGRPPRELDAVSEPIAAHPHVLVASPRHPLHDAKGFDLQELRHETFLLREPGSGTRTVAEYMFRDHLFTPAKVITLGSNEAIKQAVMAGMGISLLSLHTLGLELRTGEIGLLDVAGTPIERIWHVAHMSSKRLSPASESCRAYLLEHTAEFLGREYGGLMPGRRVA			78 nmol/min/mg of protein	140 nmol/min/mg of protein	4 nmol/min/mg of protein	4626 nmol/min/mg of protein	5269 nmol/min/mg of protein	212 nmol/min/mg of protein	
G205D/R283H (protein) MSSFLRALTLRQLQIFVTVARHASFVRAAEELHLTQPAVSMQVKQLESVVGMALFERVKGQLTLTEPGDRLLHHASRILGEVKDAEEGLQAVKDVEQGSITIGLISTSKYFAPKLLAGFTALHPGVDLRIAEGNRETLLRLLQDNAIDLALMGRPPRELDAVSEPIAAHPHVLVASPRHPLHDAKGFDLQELRHETFLLREPGSDTRTVAEYMFRDHLFTPAKVITLGSNETIKQAVMAGMGISLLSLHTLGLELRTGEIGLLDVAGTPIERIWHVAHMSSKHLSPASESCRAYLLEHTAEFLGREYGGLMPGRRVA				115 nmol/min/mg of protein	53 nmol/min/mg of protein		4480 nmol/min/mg of protein	2311 nmol/min/mg of protein	530 fold
E87K (protein) MSSFLRALTLRQLQIFVTVARHASFVRAAEELHLTQPAVSMQVKQLESVVGMALFERVKGQLTLTEPGDRLLHHASRILGEVKDAEKGLQAVKDVEQGSITIGLISTSKYFAPKLLAGFTALHPGVDLRIAEGNRETLLRLLQDNAIDLALMGRPPRELDAVSEPIAAHPHVLVASPRHPLHDAKGFDLQELRHETFLLREPGSGTRTVAEYMFRDHLFTPAKVITLGSNETIKQAVMAGMGISLLSLHTLGLELRTGEIGLLDVAGTPIERIWHVAHMSSKRLSPASESCRAYLLEHTAEFLGREYGGLMPGRRVA				305 nmol/min/mg of protein	33 nmol/min/mg of protein		5515 nmol/min/mg of protein	1597 nmol/min/mg of protein	330 fold
G205D/G118D (protein) MSSFLRALTLRQLQIFVTVARHASFVRAAEELHLTQPAVSMQVKQLESVVGMALFERVKGQLTLTEPGDRLLHHASRILGEVKDAEEGLQAVKDVEQGSITIGLISTSKYFAPKLLADFTALHPGVDLRIAEGNRETLLRLLQDNAIDLALMGRPPRELDAVSEPIAAHPHVLVASPRHPLHDAKGFDLQELRHETFLLREPGSDTRTVAEYMFRDHLFTPAKVITLGSNETIKQAVMAGMGISLLSLHTLGLELRTGEIGLLDVAGTPIERIWHVAHMSSKRLSPASESCRAYLLEHTAEFLGREYGGLMPGRRVA				148 nmol/min/mg of protein	30 nmol/min/mg of protein		3939 nmol/min/mg of protein	1168 nmol/min/mg of protein	
D148N (protein) MSSFLRALTLRQLQIFVTVARHASFVRAAEELHLTQPAVSMQVKQLESVVGMALFERVKGQLTLTEPGDRLLHHASRILGEVKDAEEGLQAVKDVEQGSITIGLISTSKYFAPKLLAGFTALHPGVDLRIAEGNRETLLRLLQDNAINLALMGRPPRELDAVSEPIAAHPHVLVASPRHPLHDAKGFDLQELRHETFLLREPGSGTRTVAEYMFRDHLFTPAKVITLGSNETIKQAVMAGMGISLLSLHTLGLELRTGEIGLLDVAGTPIERIWHVAHMSSKRLSPASESCRAYLLEHTAEFLGREYGGLMPGRRVA			185 nmol/min/mg of protein	242 nmol/min/mg of protein	8 nmol/min/mg of protein	5909 nmol/min/mg of protein	6442 nmol/min/mg of protein	343 nmol/min/mg of protein	
T232I (protein) MSSFLRALTLRQLQIFVTVARHASFVRAAEELHLTQPAVSMQVKQLESVVGMALFERVKGQLTLTEPGDRLLHHASRILGEVKDAEEGLQAVKDVEQGSITIGLISTSKYFAPKLLAGFTALHPGVDLRIAEGNRETLLRLLQDNAIDLALMGRPPRELDAVSEPIAAHPHVLVASPRHPLHDAKGFDLQELRHETFLLREPGSGTRTVAEYMFRDHLFTPAKVITLGSNEIIKQAVMAGMGISLLSLHTLGLELRTGEIGLLDVAGTPIERIWHVAHMSSKRLSPASESCRAYLLEHTAEFLGREYGGLMPGRRVA			106 nmol/min/mg of protein	123 nmol/min/mg of protein	5 nmol/min/mg of protein	5005 nmol/min/mg of protein	5005 nmol/min/mg of protein	303 nmol/min/mg of protein	
G125S/V265M (protein) MSSFLRALTLRQLQIFVTVARHASFVRAAEELHLTQPAVSMQVKQLESVVGMALFERVKGQLTLTEPGDRLLHHASRILGEVKDAEEGLQAVKDVEQGSITIGLISTSKYFAPKLLAGFTALHPSVDLRIAEGNRETLLRLLQDNAIDLALMGRPPRELDAVSEPIAAHPHVLVASPRHPLHDAKGFDLQELRHETFLLREPGSGTRTVAEYMFRDHLFTPAKVITLGSNETIKQAVMAGMGISLLSLHTLGLELRTGEIGLLDMAGTPIERIWHVAHMSSKRLSPASESCRAYLLEHTAEFLGREYGGLMPGRRVA			162 nmol/min/mg of protein	259 nmol/min/mg of protein	2 nmol/min/mg of protein	6770 nmol/min/mg of protein	6770 nmol/min/mg of protein	53 nmol/min/mg of protein	
P221S/T299I (protein) MSSFLRALTLRQLQIFVTVARHASFVRAAEELHLTQPAVSMQVKQLESVVGMALFERVKGQLTLTEPGDRLLHHASRILGEVKDAEEGLQAVKDVEQGSITIGLISTSKYFAPKLLAGFTALHPGVDLRIAEGNRETLLRLLQDNAIDLALMGRPPRELDAVSEPIAAHPHVLVASPRHPLHDAKGFDLQELRHETFLLREPGSGTRTVAEYMFRDHLFTSAKVITLGSNETIKQAVMAGMGISLLSLHTLGLELRTGEIGLLDVAGTPIERIWHVAHMSSKRLSPASESCRAYLLEHIAEFLGREYGGLMPGRRVA			206 nmol/min/mg of protein	212 nmol/min/mg of protein	16 nmol/min/mg of protein	4672 nmol/min/mg of protein	5312 nmol/min/mg of protein	655 nmol/min/mg of protein	
G125D (protein) MSSFLRALTLRQLQIFVTVARHASFVRAAEELHLTQPAVSMQVKQLESVVGMALFERVKGQLTLTEPGDRLLHHASRILGEVKDAEEGLQAVKDVEQGSITIGLISTSKYFAPKLLAGFTALHPDVDLRIAEGNRETLLRLLQDNAIDLALMGRPPRELDAVSEPIAAHPHVLVASPRHPLHDAKGFDLQELRHETFLLREPGSGTRTVAEYMFRDHLFTPAKVITLGSNETIKQAVMAGMGISLLSLHTLGLELRTGEIGLLDVAGTPIERIWHVAHMSSKRLSPASESCRAYLLEHTAEFLGREYGGLMPGRRVA			162 nmol/min/mg of protein	298 nmol/min/mg of protein	3 nmol/min/mg of protein	6777 nmol/min/mg of protein	6777 nmol/min/mg of protein	108 nmol/min/mg of protein	
P269S/T299I (protein) MSSFLRALTLRQLQIFVTVARHASFVRAAEELHLTQPAVSMQVKQLESVVGMALFERVKGQLTLTEPGDRLLHHASRILGEVKDAEEGLQAVKDVEQGSITIGLISTSKYFAPKLLAGFTALHPGVDLRIAEGNRETLLRLLQDNAIDLALMGRPPRELDAVSEPIAAHPHVLVASPRHPLHDAKGFDLQELRHETFLLREPGSGTRTVAEYMFRDHLFTPAKVITLGSNETIKQAVMAGMGISLLSLHTLGLELRTGEIGLLDVAGTSIERIWHVAHMSSKRLSPASESCRAYLLEHIAEFLGREYGGLMPGRRVA			118 nmol/min/mg of protein	158 nmol/min/mg of protein	14 nmol/min/mg of protein	3697 nmol/min/mg of protein	3879 nmol/min/mg of protein	617 nmol/min/mg of protein	
